Test results reported in PMC7083938, “NELL2-Robo3 complex structure reveals mechanisms of receptor activation for axon guidance” (Nature Communications, 2020).

Tests used:
Assay in all cases: flow cytometry on cells; biotinylated ligand at various concentrations, 30 min at 4 °C in PBS + 0.1% BSA, on Drosophila S2 cells displaying the partner (C-terminal FLAG, rat Neurexin-1 transmembrane helix); Cy5-streptavidin; gated on anti-FLAG positive cells; MFI fit to a single-site model; apparent KD
Conditions in all cases: one partner purified
[1] = biological target: T1, hRobo3 FN1-3 I624A/L626A, biotinylated (human, UniProt Q96MS0 549-870, I624A | L626A, biotin on the Avi-tag (BirA))
T1 construct: human Robo3, FN domains 1-3, P549-L870; source: High Five cells (baculovirus), purified, biotinylated with BirA (general methods)
T1 sequence (looked up): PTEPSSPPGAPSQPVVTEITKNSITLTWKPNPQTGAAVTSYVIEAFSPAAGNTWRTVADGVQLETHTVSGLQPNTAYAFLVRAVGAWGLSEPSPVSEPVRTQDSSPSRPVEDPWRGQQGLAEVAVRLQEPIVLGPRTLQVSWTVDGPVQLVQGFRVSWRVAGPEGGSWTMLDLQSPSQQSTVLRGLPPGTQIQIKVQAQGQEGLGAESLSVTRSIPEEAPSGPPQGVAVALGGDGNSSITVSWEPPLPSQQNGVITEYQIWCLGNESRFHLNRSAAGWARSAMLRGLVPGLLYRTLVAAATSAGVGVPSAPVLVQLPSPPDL

[2] = biological target: T2, hRobo3 FN1-3 R630A, biotinylated (human, UniProt Q96MS0 549-870, R630A, biotin on the Avi-tag (BirA))
T2 construct: human Robo3, FN domains 1-3, P549-L870; source: High Five cells (baculovirus), purified, biotinylated with BirA (general methods)
T2 sequence (looked up): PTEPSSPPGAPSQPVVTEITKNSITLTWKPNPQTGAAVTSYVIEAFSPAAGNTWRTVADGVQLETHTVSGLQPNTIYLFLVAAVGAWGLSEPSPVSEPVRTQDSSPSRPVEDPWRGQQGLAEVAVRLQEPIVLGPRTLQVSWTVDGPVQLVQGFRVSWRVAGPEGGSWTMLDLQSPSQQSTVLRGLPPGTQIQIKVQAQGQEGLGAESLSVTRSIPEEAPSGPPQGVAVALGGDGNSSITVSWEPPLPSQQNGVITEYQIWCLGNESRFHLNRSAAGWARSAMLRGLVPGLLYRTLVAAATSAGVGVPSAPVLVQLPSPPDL

[3] = biological target: T3, hRobo3 FN1-3 N600A/T601A, biotinylated (human, UniProt Q96MS0 549-870, N600A | T601A, biotin on the Avi-tag (BirA))
T3 construct: human Robo3, FN domains 1-3, P549-L870; source: High Five cells (baculovirus), purified, biotinylated with BirA (general methods)
T3 sequence (looked up): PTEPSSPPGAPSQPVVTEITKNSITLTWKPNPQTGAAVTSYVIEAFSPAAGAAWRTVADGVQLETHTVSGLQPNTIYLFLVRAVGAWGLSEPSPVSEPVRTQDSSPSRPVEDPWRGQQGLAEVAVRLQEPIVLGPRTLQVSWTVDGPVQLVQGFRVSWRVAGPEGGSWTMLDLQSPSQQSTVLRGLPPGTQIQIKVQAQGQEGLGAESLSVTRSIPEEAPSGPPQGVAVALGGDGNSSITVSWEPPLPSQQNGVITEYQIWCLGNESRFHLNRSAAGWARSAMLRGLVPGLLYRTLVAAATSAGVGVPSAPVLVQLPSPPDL

B1: hNELL2 EGF1-6 displayed on S2 cells (domain or fragment)
chain: not shown
notes: human NELL2, EGF domains 1-6, G397-T637; also called NELL2EGF1-6 WT (Actin 5C, C-terminal FLAG); FLAG-tagged NELL2 EGF1-6; source: Drosophila S2 cells, transiently transfected, on the cell surface; not shown: FLAG, C-terminal, kept; transmembrane helix of rat Neurexin-1, C-terminal, kept
Kd [1]: 6.5 µM
Kd [2]: ≥ 100 µM
Kd [3]: 2.9 µM
